{"source": "patent US20180356429A1", "key": {"[1]": {"biological_target": "Recombinant human IL-13 (R&D Systems, MN, catalog no. 213-ILB/CF) (human) (UniProt P35225)", "sequence (P35225 other isoform, or with tags, fused parts or gaps)": "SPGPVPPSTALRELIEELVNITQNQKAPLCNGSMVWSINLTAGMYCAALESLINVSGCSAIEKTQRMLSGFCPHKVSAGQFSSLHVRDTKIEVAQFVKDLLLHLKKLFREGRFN", "assay": "sandwich pair screen, negative (blank) signal, binder is detection Ab; capture Ab 4D7"}, "[2]": {"biological_target": "Recombinant human IL-13 (R&D Systems, MN, catalog no. 213-ILB/CF) (human) (UniProt P35225)", "assay": "sandwich pair screen, negative (blank) signal, binder is detection Ab; capture Ab 11H4"}, "[3]": {"biological_target": "Recombinant human IL-13 (R&D Systems, MN, catalog no. 213-ILB/CF) (human) (UniProt P35225)", "assay": "sandwich pair screen, negative (blank) signal, binder is detection Ab; capture Ab 14C9"}, "[4]": {"biological_target": "Recombinant human IL-13 (R&D Systems, MN, catalog no. 213-ILB/CF) (human) (UniProt P35225)", "assay": "sandwich pair screen, negative (blank) signal, binder is detection Ab; capture Ab 8C11"}, "[5]": {"biological_target": "Recombinant human IL-13 (R&D Systems, MN, catalog no. 213-ILB/CF) (human) (UniProt P35225)", "assay": "sandwich pair screen, negative (blank) signal, binder is detection Ab; capture Ab 32116"}, "[6]": {"biological_target": "Recombinant human IL-13 (R&D Systems, MN, catalog no. 213-ILB/CF) (human) (UniProt P35225)", "assay": "sandwich pair screen, negative (blank) signal, binder is detection Ab; capture Ab 228B/C"}, "[7]": {"biological_target": "Recombinant human IL-13 (R&D Systems, MN, catalog no. 213-ILB/CF) (human) (UniProt P35225)", "assay": "sandwich pair screen, 100 pg/mL recombinant IL-13, binder is detection Ab; capture Ab 4D7"}, "[8]": {"biological_target": "Recombinant human IL-13 (R&D Systems, MN, catalog no. 213-ILB/CF) (human) (UniProt P35225)", "assay": "sandwich pair screen, 100 pg/mL recombinant IL-13, binder is detection Ab; capture Ab 11H4"}, "[9]": {"biological_target": "Recombinant human IL-13 (R&D Systems, MN, catalog no. 213-ILB/CF) (human) (UniProt P35225)", "assay": "sandwich pair screen, 100 pg/mL recombinant IL-13, binder is detection Ab; capture Ab 14C9"}, "[10]": {"biological_target": "Recombinant human IL-13 (R&D Systems, MN, catalog no. 213-ILB/CF) (human) (UniProt P35225)", "assay": "sandwich pair screen, 100 pg/mL recombinant IL-13, binder is detection Ab; capture Ab 8C11"}, "[11]": {"biological_target": "Recombinant human IL-13 (R&D Systems, MN, catalog no. 213-ILB/CF) (human) (UniProt P35225)", "assay": "sandwich pair screen, 100 pg/mL recombinant IL-13, binder is detection Ab; capture Ab 32116"}, "[12]": {"biological_target": "Recombinant human IL-13 (R&D Systems, MN, catalog no. 213-ILB/CF) (human) (UniProt P35225)", "assay": "sandwich pair screen, negative (blank) signal, binder is detection Ab; capture Ab MILR1444A"}, "[13]": {"biological_target": "Recombinant human IL-13 (R&D Systems, MN, catalog no. 213-ILB/CF) (human) (UniProt P35225)", "assay": "sandwich pair screen, 100 pg/mL recombinant IL-13, binder is detection Ab; capture Ab 228B/C"}, "[14]": {"biological_target": "Recombinant human IL-13 (R&D Systems, MN, catalog no. 213-ILB/CF) (human) (UniProt P35225)", "assay": "sandwich pair screen, 100 pg/mL recombinant IL-13, binder is detection Ab; capture Ab MILR1444A"}}, "data": [{"binder": "228B/C (antibody, from a related filing, V domains shown) VH: QVQLQESGPGLVAPSQSLSITCTVSGFSLNAYSVNWVRQPPGKGLEWLGMIWGDGKIVYNSALKSRLNISKDSSKSQVFLKMSSLQSDDTARYYCAGDGYYPYAMDNWGHGTSVTVSS VL: NIVLTQSPASLAVSLGQRATISCRASKSVDSYGNSFMHWYQQKPGQPPKLLIYLASNLESGVPARFSGSGSRTDFTLTIDPVEADDAASYYCQQNNEDPRTFGGGTKLEIK", "values": [{"measurement": "Assay Signal Neg (blank)", "setting": "[1]", "value": 24.7}, {"measurement": "Assay Signal Neg (blank)", "setting": "[2]", "value": 22.4}, {"measurement": "Assay Signal Neg (blank)", "setting": "[3]", "value": 29}, {"measurement": "Assay Signal Neg (blank)", "setting": "[4]", "value": 3.9}, {"measurement": "Assay Signal Neg (blank)", "setting": "[5]", "value": 15.2}, {"measurement": "Assay Signal Neg (blank)", "setting": "[6]", "value": 26.6}, {"measurement": "Assay Signal Pos", "setting": "[7]", "value": 29.9}, {"measurement": "Assay Signal Pos", "setting": "[8]", "value": 9540}, {"measurement": "Assay Signal Pos", "setting": "[9]", "value": 70.3}, {"measurement": "Assay Signal Pos", "setting": "[10]", "value": 25.4}, {"measurement": "Assay Signal Pos", "setting": "[11]", "value": 126}, {"measurement": "Assay Signal Neg (blank)", "setting": "[12]", "value": 5.4}, {"measurement": "Assay Signal Pos", "setting": "[13]", "value": 27.7}, {"measurement": "Assay Signal Pos", "setting": "[14]", "value": 6}]}]}
